Test results from patent US20190167815.

Assays:
SBS#75115 (synthetic) = test: cell_activity; settings: KRAB fusion mRNA, C9 line, isoform-specific RT-qPCR; microarray: only C9orf72 repressed
SBS#75114 (synthetic) = test: cell_activity; settings: KRAB fusion mRNA, C9 line, isoform-specific RT-qPCR

Sequence: CACGCCCCGGCCCCGGCCCCGGCCCCTA (double strand) [C9orf72 reverse site, frame i]
- activity (SBS#75115 (synthetic)): > 70 % repression
- activity (SBS#75114 (synthetic)): > 70 % repression
